Source: patent US20160115202A1 (OHIO STATE INNOVATION FOUNDATION, published 2016)
Where two headings read alike, the source gives them in different places. Each block holds one molecule with its values, some of them ahead of it. Bridges are numbered along the chain shown (N, C = ends). Primed or numbered codes have the meaning given here. Where no end group is shown, it is not given here. [ ]: non-standard residue; d: D form. The star is where a group is joined. trimesoyl = trimesic acid scaffold joined by three amide bonds (bicycle); trimesoyl″ = trimesic acid scaffold joined by three amide bonds; FITC = O=C1OC2(c3ccc(O)cc3Oc3cc(O)ccc32)c2ccc(NC(=S)*)cc21; Phg = N[C@H](C(=O)O)c1ccccc1; Nle = CCCC[C@H](N)C(=O)O; Pra = C#CC[C@H](N)C(=O)O; dNal = D-naphthylalanine; Dap = NC[C@H](N)C(=O)O

Assays:
[1] = biological target: GST-tagged K-Ras G12V protein (Example 4) (UniProt P01116); test: FA, binding in solution
[2] = biological target: GST-tagged K-Ras G12V protein (Example 4) (UniProt P01116); test: FA, binding in solution; remark: listed apart in the source
[3] = biological target: T1, ybbR-tagged extracellular domain of human TNFα (aa 77-233) (human, UniProt P01375 77-233, biotin or Texas Red attached at the ybbR tag by Sfp where labeled TNFα was used); test: FA competition; competitor FITC-labeled Necrostatin C1 (100 nM), TNFα 1600 nM
T1 construct: range 77-233; Expressed in E. coli from pET-22b(+)-ybbR; also called TNF-alpha; tumor necrosis factor-alpha
T1 sequence (P01375 other isoform, or with tags, fused parts or gaps limits assumed): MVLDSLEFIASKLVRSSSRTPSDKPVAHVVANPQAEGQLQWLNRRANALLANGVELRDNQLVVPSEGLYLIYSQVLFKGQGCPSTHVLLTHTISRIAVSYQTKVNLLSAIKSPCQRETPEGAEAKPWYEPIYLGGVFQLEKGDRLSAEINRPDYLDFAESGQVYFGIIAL

[4] = biological target: T1, ybbR-tagged extracellular domain of …; test: FA competition; competitor FITC-labeled Necrostatin C2 (100 nM), TNFα 1600 nM
[5] = biological target: T1, ybbR-tagged extracellular domain of …; test: competition ELISA: 0.5 nM HRP-TNFR1 on immobilized biotinylated TNFα
Protocol: A Nunc 96F Maxisorp plate was coated overnight with 100 μL of 5 mg/mL Neutravidin (in 50 mM Na₂CO₃, pH 9.0) at 4° C. The solution was removed and each well was washed with 100 μL of the blocking buffer containing 3% BSA. […] The wells were quickly washed twice with a washing buffer (0.01% Tween 20 in PBS buffer). […] After incubation at 4° C. for 1.5 h, the plate was washed twice with the washing buffer and incubated with 100 μL of 3,3′,5,5′-tetramethylbenzidine (Sigma) for 30 min. The reaction was quenched by the addition of 100 μL of 1 M phosphoric acid. The absorbance at 450 nm was measured and plotted against the peptide concentration and the IC₅₀ value was obtained by curve fitting.

[6] = biological target: T1, ybbR-tagged extracellular domain of …; test: FA, resynthesized FITC-labeled peptide titrated with TNFα

Kd [1]: 6 µM
Molecule: peptide 13, bicyclo(Ala-Orn-Phg-Arg-d-Asn-Pra-Ile-d-Phe-K-FNalR4-Dap)-K

Kd [2]: 2 µM
B1: peptide 12, bicyclo(d-Ala-Gln-Phg-Arg-d-Asn-Pra-Ile-Asp-K-FNalR4-Dap)-K (peptide)
peptide: [dA]Q[Phg]R[dN][Pra]IDKF[dNal]RRRR[Dap]K
modifications: linker N-1-9-16 via trimesoyl″; not fully specified (residue 6); also: dye label on C-terminal Lys not given here

Further lines, the molecule ahead of its results:

B2: Necrostatin C2 (unlabeled) (peptide)
peptide: A[dF]W[dT]QK[Nle][dL]AH[Dap]
modifications: linker (positions not given here) via trimesic acid (trimesoyl); not fully specified (bridges)
notes: also called unlabeled Necrostatin C2
IC50 [3]: ~4 µM
IC50 [4]: ~2 µM

B3: Necrostatin C1 (label not stated) (peptide)
peptide: [Phg]Y[dA]KY[dF]G[dK]H[Dap]
modifications: linker (positions not given here) via trimesic acid (trimesoyl); not fully specified (bridges)
notes: As used in the TNFα-TNFR1 ELISA and the MTT assays; also called Nercostatin C1
IC50 [5]: 3.1 µM

B4: FITC-labeled Necrostatin C1 (resynthesized) (peptide)
peptide: [Phg]Y[dA]KY[dF]G[dK]H[Dap]K(FITC)
modifications: linker (positions not given here) via trimesoyl; not fully specified (bridges)
Kd [6]: 0.45 µM
